The text below walks through data of the RNAGym collection of RNA variant scans (doi:10.1073/pnas.2313332121).

Sequences and labels used below:
B1: TPR t1 (parent)
chain: GACCAAUCUGCCCUCAGAGCUCGAGAACAUCUUCGGAUGCAGAGGAGGCAGGCUUCGGUGGCGCGAUAGCGCCAACGUCCUCAACCUCCAAUGCAUCCCACCACAUGAUGAUGCCUGAAGAGCCUUGGUUUUUUG

In this data set the parent is B1. The data set is described as follows: polymerase ribozyme fitness, log enrichment relative to wild type (log ratio); higher = more active; in vitro selection for triplet polymerase activity. The essentials:
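Genotype fitness is the logarithm of its enrichment divided by wild-type enrichment, using inverse-variance-weighted averages of replicates. That logarithm is base 2. Enrichment was measured by Illumina sequencing of input and output libraries from one triplicate in vitro selection round, with frozen incubation at −7 °C, on PCR-built, transcribed mutant libraries of each subunit of a heterodimeric triplet polymerase ribozyme, retaining genotypes with ≥10 input reads and ≥1 read per output.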
Turning to G42C A103G C114G G122U, the “polymerase ribozyme fitness (log ratio)” value is -6.92.

On to G42A A43U U96A, for which the “polymerase ribozyme fitness (log ratio)” value is -2.41.

Turning to A41G G48A C80U A95G C124A, the “polymerase ribozyme fitness (log ratio)” value was found to be 0.0211.

With G42C U109A, the “polymerase ribozyme fitness (log ratio)” value was -5.54.

For G42A G113U, the “polymerase ribozyme fitness (log ratio)” value is -3.

As for G42A A46G G120U, the “polymerase ribozyme fitness (log ratio)” value was -2.64.

Regarding A41U G58C C89G, the “polymerase ribozyme fitness (log ratio)” value was -2.91.

As to G42C C89U C102A, the “polymerase ribozyme fitness (log ratio)” value was -5.66.

G42C G71A C72A C115U: the “polymerase ribozyme fitness (log ratio)” value is -5.81.

Take A41U G61A C82G G120A U125G: the “polymerase ribozyme fitness (log ratio)” value was -2.63.

In the case of G42A G45C, the “polymerase ribozyme fitness (log ratio)” value was -2.81.

For the variant A41U G45A U55C, the “polymerase ribozyme fitness (log ratio)” value is -1.85.

For the variant A41G G48U U112C, the “polymerase ribozyme fitness (log ratio)” value was found to be 0.49.

For the variant A41U C49U U109A U130G, the “polymerase ribozyme fitness (log ratio)” value was -6.38.

Regarding G42A G52C C62A, the “polymerase ribozyme fitness (log ratio)” value was -4.83.

On to A41G G57A C64U U130A, for which the “polymerase ribozyme fitness (log ratio)” value is -1.6.

As for G42C C49A C56U U96A, the “polymerase ribozyme fitness (log ratio)” value is -3.16.

G42A C72U C85U: the “polymerase ribozyme fitness (log ratio)” value was -2.92.

For A41U U78G C82U A91G A121C, the “polymerase ribozyme fitness (log ratio)” value was -1.41.

Turning to G42A A46U C53A U87A, the “polymerase ribozyme fitness (log ratio)” value was -2.21.

Regarding G42A A119G, the “polymerase ribozyme fitness (log ratio)” value was -0.491.

Regarding G42A G44U C99A A100U U109A, the “polymerase ribozyme fitness (log ratio)” value was -5.27.

Consider G42A C72A C123A, for which the “polymerase ribozyme fitness (log ratio)” value was -1.85.

Regarding G42A A46U G48A A66C A118U, the “polymerase ribozyme fitness (log ratio)” value is -5.21.

Consider G42A U55G, for which the “polymerase ribozyme fitness (log ratio)” value is -1.85.

As for G42C C72U G113C, the “polymerase ribozyme fitness (log ratio)” value was -2.98.

Regarding A41U C53U, the “polymerase ribozyme fitness (log ratio)” value is -1.15.

Regarding G42U C56A C64U, the “polymerase ribozyme fitness (log ratio)” value is -2.46.

Turning to G42C A74U U96G C124U, the “polymerase ribozyme fitness (log ratio)” value was -1.27.

Take A41U G51A G57C C82A U96G C114U U116A: the “polymerase ribozyme fitness (log ratio)” value was -7.09.

Regarding A41U C49A A50U U55C G60U C115U, the “polymerase ribozyme fitness (log ratio)” value is -5.28.

On to G42C U78A C85U C123G G135U, for which the “polymerase ribozyme fitness (log ratio)” value is -2.89.

On to G42C A66G C89G, for which the “polymerase ribozyme fitness (log ratio)” value is -4.07.

With G42C G69U A91U C102U C123U, the “polymerase ribozyme fitness (log ratio)” value was -0.432.

Turning to A41U C53U G120U, the “polymerase ribozyme fitness (log ratio)” value was -1.89.

As to G42C C49A, the “polymerase ribozyme fitness (log ratio)” value was -1.88.

As for G42A G63C C86A, the “polymerase ribozyme fitness (log ratio)” value was -3.7.

On to G42C A118G, for which the “polymerase ribozyme fitness (log ratio)” value was -1.93.

Take G42C A91G G113U: the “polymerase ribozyme fitness (log ratio)” value was -3.17.

Turning to A41U C89U U116A, the “polymerase ribozyme fitness (log ratio)” value was -4.32.

On to A41G C101A, for which the “polymerase ribozyme fitness (log ratio)” value is -1.25.

Regarding A41U C72G, the “polymerase ribozyme fitness (log ratio)” value was -2.06.

In the case of G42A U54C G57A, the “polymerase ribozyme fitness (log ratio)” value is -3.66.

In the case of A41G U55G A74G, the “polymerase ribozyme fitness (log ratio)” value worked out at 0.0435.

A41G G63A: the “polymerase ribozyme fitness (log ratio)” value is -1.32.

Consider A41U G128A, for which the “polymerase ribozyme fitness (log ratio)” value was -2.79.

As for A41U C53U U112G, the “polymerase ribozyme fitness (log ratio)” value was -2.23.

On to G42A C62U A83U C85U C124G G128U, for which the “polymerase ribozyme fitness (log ratio)” value is -3.77.

For the variant A41U G42C C70A, the “polymerase ribozyme fitness (log ratio)” value is -6.24.

With A41U C49G, the “polymerase ribozyme fitness (log ratio)” value is -2.03.

Turning to A41U C49U, the “polymerase ribozyme fitness (log ratio)” value was -2.03.

In the case of A41U A46U C89G A121C, the “polymerase ribozyme fitness (log ratio)” value was -7.24.

A41G G52A U59C U125G: the “polymerase ribozyme fitness (log ratio)” value is -1.61.

Consider A41G U78C C82A, for which the “polymerase ribozyme fitness (log ratio)” value is -0.297.

On to G42A G61A C115A, for which the “polymerase ribozyme fitness (log ratio)” value is -1.62.

Take G42C G71U A84U: the “polymerase ribozyme fitness (log ratio)” value was -3.18.

Turning to A41U U78A U112C, the “polymerase ribozyme fitness (log ratio)” value was determined as 0.679.

As for G42U A50C U92C, the “polymerase ribozyme fitness (log ratio)” value was -2.73.

Consider A41G C85A C124U G128C U133G, for which the “polymerase ribozyme fitness (log ratio)” value was -3.58.

Consider G42C G128U U130A G135U, for which the “polymerase ribozyme fitness (log ratio)” value was -4.23.

In the case of A41U U87C A90U A91C, the “polymerase ribozyme fitness (log ratio)” value is -1.28.

Regarding A41G U81A G117U, the “polymerase ribozyme fitness (log ratio)” value was -5.27.

With A41U G69U G93C, the “polymerase ribozyme fitness (log ratio)” value is -0.276.

For the variant G42A G69C, the “polymerase ribozyme fitness (log ratio)” value was -3.78.

With A41U C53G G58A C70U G110C U131A, the “polymerase ribozyme fitness (log ratio)” value was -6.81.

For the variant A41G G110U, the “polymerase ribozyme fitness (log ratio)” value was -1.97.

For the variant G42C C76A U78A, the “polymerase ribozyme fitness (log ratio)” value was -2.31.

For the variant G42A G117C A119U, the “polymerase ribozyme fitness (log ratio)” value is -3.55.

Consider G42U A46U C62U, for which the “polymerase ribozyme fitness (log ratio)” value was -2.07.

Turning to G42U A83C G127U, the “polymerase ribozyme fitness (log ratio)” value is -2.25.

Take A41U C49G G52U U112C: the “polymerase ribozyme fitness (log ratio)” value was -1.09.

G42A A100C U112G: the “polymerase ribozyme fitness (log ratio)” value is -4.73.

For the variant A41G U87G U109A C115U, the “polymerase ribozyme fitness (log ratio)” value is -6.39.

Consider A41U G127C, for which the “polymerase ribozyme fitness (log ratio)” value is -2.91.

As for A41G G45U C62A U78A U112G, the “polymerase ribozyme fitness (log ratio)” value was -5.01.

As for G42C U116C U125A, the “polymerase ribozyme fitness (log ratio)” value is -3.61.

Regarding G42C A84U, the “polymerase ribozyme fitness (log ratio)” value is -1.87.

For A41U G69C U78C A100U, the “polymerase ribozyme fitness (log ratio)” value is -6.25.

Take G42A G110U: the “polymerase ribozyme fitness (log ratio)” value is -3.64.

Consider A41U G48U C104A A121G G122A, for which the “polymerase ribozyme fitness (log ratio)” value was -3.77.

Consider A41U G69U, for which the “polymerase ribozyme fitness (log ratio)” value was -0.159.

With G42C G61C C79U A90C C115G G120U G122A, the “polymerase ribozyme fitness (log ratio)” value is -4.78.

With A41U A84G G122A, the “polymerase ribozyme fitness (log ratio)” value is -3.29.
